This is an account of results in the supplement of paper PMC11246515.

± gives the standard deviation of the averaged measurements.

The data set can be described thus: total protein half-life in vivo (active degradation + dilution); higher = more stable protein.
Setting [1] is: E. coli NCM3722 delta-clpP delta-lon delta-hslV, growth: N-lim chemostat, doubling time 6 h.
[2] abbreviates: E. coli NCM3722 delta-clpP, growth: N-lim chemostat, doubling time 6 h.
Setting [3] is: E. coli NCM3722 delta-hslV, growth: N-lim chemostat, doubling time 6 h.
The mark [4] stands for this setting: E. coli NCM3722 delta-lon, growth: N-lim chemostat, doubling time 6 h.
[5] abbreviates: E. coli NCM3722 delta-smpB, growth: N-lim chemostat, doubling time 6 h.
[6] abbreviates: wild type E. coli NCM3722, growth: C-lim chemostat, doubling time 3 h.
Where [7] appears, read: wild type E. coli NCM3722, growth: C-lim chemostat, doubling time 6 h.
Setting [8] is: wild type E. coli NCM3722, growth: C-lim chemostat, doubling time 12 h.
The mark [9] stands for this setting: wild type E. coli NCM3722, growth: N-lim chemostat, doubling time 6 h.
[10] abbreviates: wild type E. coli NCM3722, growth: N-lim chemostat, doubling time 12 h.
Setting [11] is: wild type E. coli NCM3722, growth: P-lim chemostat, doubling time 6 h.
The mark [12] stands for this setting: wild type E. coli NCM3722, growth: P-lim chemostat, doubling time 12 h.

On to “MFDFASYHRAATLADAINLLADNPQAKLLAGGTDVLIQLHHHNDRYRHIVDIHNLAELRGITLAEDGSLRIGSATTFTQLIEDPITQRHLPALCAAATSIAGPQIRNVATYGGNICNGATSADSATPTLIYDAKLEIHSPRGVRFVPINGFHTGPGKVSLEHDEILVAFHFPPQPKEHAGSAHFKYAMRDAMDISTIGCAAHCRLDNGNFSELRLAFGVAAPTPIRCQHAEQTAQNAPLNLQTLEAISESVLQDVAPRSSWRASKEFRLHLIQTMTKKVISEAVAAAGGKLQ”, for which the “total protein half-life in vivo” value under setting [1] is 4.54 ± 1.2 h; the “total protein half-life in vivo” value under setting [2] was 2.5 ± 0.1 h; the “total protein half-life in vivo” value under setting [3] is 3.19 h; the “total protein half-life in vivo” value under setting [4] was found to be 3.61 ± 0.29 h; the “total protein half-life in vivo” value under setting [5] amounted to 2.379 ± 0.0096 h; the “total protein half-life in vivo” value under setting [6] was determined as 2.25 ± 0.11 h. For the same sequence, the “total protein half-life in vivo” value reads like this: under setting [7], 4.84 ± 0.91 h; under setting [8], 6.07 ± 0.36 h; under setting [9], 2.52 ± 0.089 h; under setting [10], 4 h; under setting [11], 4.56 ± 0.36 h; under setting [12], 9.6 ± 1.6 h.

Take “MVWIDYAIIAVIAFSSLVSLIRGFVREALSLVTWGCAFFVASHYYTYLSVWFTGFEDELVRNGIAIAVLFIATLIVGAIVNFVIGQLVEKTGLSGTDRVLGVCFGALRGVLIVAAILFFLDSFTGVSKSEDWSKSQLIPQFSFIIRCFFDYLQSSSSFLPRA”: the “total protein half-life in vivo” value under setting [10] stood at 7.81 h.

In the case of “MKKIACLSALAAVLAFTAGTSVAATSTVTGGYAQSDAQGQMNKMGGFNLKYRYEEDNSPLGVIGSFTYTEKSRTASSGDYNKNQYYGITAGPAYRINDWASIYGVVGVGYGKFQTTEYPTYKHDTSDYGFSYGAGLQFNPMENVALDFSYEQSRIRSVDVGTWIAGVGYRF [P0A917]”, the “total protein half-life in vivo” value by setting is: under setting [1], 7.26 ± 0.62 h; under setting [2], 6.37 ± 0.47 h; under setting [3], 6.51 ± 0.36 h; under setting [4], 6.76 ± 0.59 h; under setting [5], 5.81 ± 0.095 h; under setting [6], 3.09 ± 0.13 h. Besides, the “total protein half-life in vivo” value under setting [7] is 6.04 ± 0.27 h; the “total protein half-life in vivo” value under setting [8] is 14.4 ± 0.89 h; the “total protein half-life in vivo” value under setting [9] came out at 6.09 ± 0.073 h; the “total protein half-life in vivo” value under setting [10] was determined as 12.9 ± 1.1 h; the “total protein half-life in vivo” value under setting [11] came out at 6.15 ± 0.19 h; the “total protein half-life in vivo” value under setting [12] was found to be 12.9 ± 0.62 h.

For “MKKTAAIISACMLTFALSACSGSNYVMHTNDGRTIVSDGKPQTDNDTGMISYKDANGNKQQINRTDVKEMVELDQ”, the “total protein half-life in vivo” value amounted to 5.09 ± 0.4 h under setting [1]; 5.11 ± 0.78 h under setting [2]; 5.48 ± 0.12 h under setting [3]; 5.68 ± 1.2 h under setting [5]; 3.35 ± 0.3 h under setting [6]; 5.25 ± 0.68 h under setting [7]. The “total protein half-life in vivo” value is, setting by setting: under setting [8], 10.3 ± 0.96 h; under setting [9], 5.312 ± 0.043 h; under setting [10], 11.3 h; under setting [11], 4.83 ± 0.12 h; under setting [12], 11.1 ± 0.28 h.

Take “MRLIITFLMAWCLSWGAYAATAPDSKQITQELEQAKAAKPAQPEVVEALQSALNALEERKGSLERIKQYQQVIDNYPKLSATLRAQLNNMRDEPRSVSPGMSTDALNQEILQVSSQLLDKSRQAQQEQERAREIADSLNQLPQQQTDARRQLNEIERRLGTLTGNTPLNQAQNFALQSDSARLKALVDELELAQLSANNRQELARLRSELAEKESQQLDAYLQALRNQLNSQRQLEAERALESTELLAENSADLPKDIVAQFKINRELSAALNQQAQRMDLVASQQRQAASQTLQVRQALNTLREQSQWLGSSNLLGEALRAQVARLPEMPKPQQLDTEMAQLRVQRLRYEDLLNKQPLLRQIHQADGQPLTAEQNRILEAQLRTQRELLNSLLQGGDTLLLELTKLKVSNGQLEDALKEVNEATHRYLFWTSDVRPMTIAWPLEIAQDLRRLISLDTFSQLGKASVMMLTSKETILPLFGALILVGCSIYSRRYFTRFLERSAAKVGKVTQDHFWLTLRTLFWSILVASPLPVLWMTLGYGLREAWPYPLAVAIGDGVTATVPLLWVVMICATFARPNGLFIAHFGWPRERVSRGMRYYLMSIGLIVPLIMALMMFDNLDDREFSGSLGRLCFILICGALAVVTLSLKKAGIPLYLNKEGSGDNITNHMLWNMMIGAPLVAILASAVGYLATAQALLARLETSVAIWFLLLVVYHVIRRWMLIQRRRLAFDRAKHRRAEMLAQRARGEEEAHHHSSPEGAIEVDESEVDLDAISAQSLRLVRSILMLIALLSVIVLWSEIHSAFGFLENISLWDVTSTVQGVESLEPITLGAVLIAILVFIITTQLVRNLPALLELAILQHLDLTPGTGYAITTITKYLLMLIGGLVGFSMIGIEWSKLQWLVAALGVGLGFGLQEIFANFISGLIILFEKPIRIGDTVTIRDLTGSVTKINTRATTISDWDRKEIIVPNKAFITEQFINWSLSDSVTRVVLTIPAPADANSEEVTEILLTAARRCSLVIDNPAPEVFLVDLQQGIQIFELRIYAAEMGHRMPLRHEIHQLILAGFHAHGIDMPFPPFQMRLESLNGKQTGRTLTSAGKGRQAGSL”: the “total protein half-life in vivo” value runs as follows: under setting [1], 6.45 ± 0.14 h; under setting [2], 6.87 ± 1.2 h; under setting [3], 6.3 ± 0.62 h; under setting [4], 6.27 ± 0.29 h; under setting [5], 5.67 ± 0.52 h; under setting [6], 3.35 ± 0.12 h. The “total protein half-life in vivo” value under setting [7] came to 6.73 ± 0.79 h; the “total protein half-life in vivo” value under setting [8] was determined as 13.1 ± 1.4 h; the “total protein half-life in vivo” value under setting [9] came out at 6.49 ± 0.46 h; the “total protein half-life in vivo” value under setting [10] was 13.3 ± 2.1 h; the “total protein half-life in vivo” value under setting [11] was 5.95 ± 0.7 h; the “total protein half-life in vivo” value under setting [12] was 12.8 ± 0.24 h.

“MSKSDVFHLGLTKNDLQGATLAIVPGDPDRVEKIAALMDKPVKLASHREFTTWRAELDGKPVIVCSTGIGGPSTSIAVEELAQLGIRTFLRIGTTGAIQPHINVGDVLVTTASVRLDGASLHFAPLEFPAVADFECTTALVEAAKSIGATTHVGVTASSDTFYPGQERYDTYSGRVVRHFKGSMEEWQAMGVMNYEMESATLLTMCASQGLRAGMVAGVIVNRTQQEIPNAETMKQTESHAVKIVVEAARRLL”: the “total protein half-life in vivo” value reads like this: under setting [1], 6.83 ± 0.33 h; under setting [2], 6.27 ± 0.78 h; under setting [3], 7.09 ± 0.43 h; under setting [4], 5.95 ± 0.47 h; under setting [5], 5.823 ± 0.029 h; under setting [6], 3.23 ± 0.11 h. Also, the “total protein half-life in vivo” value is, setting by setting: under setting [7], 6.246 ± 0.033 h; under setting [8], 13.7 ± 2.1 h; under setting [9], 5.75 ± 0.092 h; under setting [10], 10.7 ± 0.74 h; under setting [11], 5.99 ± 0.2 h; under setting [12], 12.4 ± 0.29 h.

With “MRYHGDMLLTTPVISTLKQNYPDAKIDMLLYQDTIPILSENPEINALYGISNKGAGTFDKIKNVLSLIKTLRANNYDLVINLTDQWMVALLVRCLPARMKISQLYGHRQHGIWKKSFTHLAPIHGTHIVERNLSVLEPLGITDFYTDTTMSYAEDCWKKMRRELDALGVKDHYVVIQPTARQIFKCWDNDKFSKVIDALQQRGYQVVLTCGPSADDLACVDEIARGCETKPITGLAGKTRFPELGALIDHAVLFIGVDSAPGHIAAAVKTPVISLFGATDHVFWRPWTENIIQFWAGNYQKMPTRHELDRNKKYLSVIPAEDVIAATEKLLPEDAPSADRNAQL”, the “total protein half-life in vivo” value is, setting by setting: under setting [1], 6.088 ± 0.042 h; under setting [2], 6.21 ± 0.39 h; under setting [3], 6.87 ± 0.63 h; under setting [5], 4.85 ± 0.32 h; under setting [6], 3.141 ± 0.0067 h; under setting [7], 6.09 ± 0.63 h. Further, the “total protein half-life in vivo” value runs as follows: under setting [8], 11.7 ± 0.39 h; under setting [9], 5.89 ± 0.19 h; under setting [10], 11.9 ± 0.99 h; under setting [11], 5.59 ± 0.42 h; under setting [12], 11.3 ± 1.1 h.
